Measured values taken from paper PMC6768103, “Functional and structural characterization of HspB1/Hsp27 from Chinese hamster ovary cells” (FEBS Open Bio, 2019).
Changes are numbered by the printed parent chain. Numbers in names are those of the source.

Assays:
[1] = target: T1, porcine heart citrate synthase (pig, UniProt P00889 28-464); assay: SEC; mixture of CgHspB1WT (30 µM) and CS incubated at 55 °C for 30 min, cooled to 25 °C and analysed at 25 °C; conditions: both partners purified
T1 construct: citrate synthase from porcine heart; Client protein; the complex with CgHspB1 appeared only after heating at 55 °C (heat-denatured CS); also called CS
T1 sequence (looked up): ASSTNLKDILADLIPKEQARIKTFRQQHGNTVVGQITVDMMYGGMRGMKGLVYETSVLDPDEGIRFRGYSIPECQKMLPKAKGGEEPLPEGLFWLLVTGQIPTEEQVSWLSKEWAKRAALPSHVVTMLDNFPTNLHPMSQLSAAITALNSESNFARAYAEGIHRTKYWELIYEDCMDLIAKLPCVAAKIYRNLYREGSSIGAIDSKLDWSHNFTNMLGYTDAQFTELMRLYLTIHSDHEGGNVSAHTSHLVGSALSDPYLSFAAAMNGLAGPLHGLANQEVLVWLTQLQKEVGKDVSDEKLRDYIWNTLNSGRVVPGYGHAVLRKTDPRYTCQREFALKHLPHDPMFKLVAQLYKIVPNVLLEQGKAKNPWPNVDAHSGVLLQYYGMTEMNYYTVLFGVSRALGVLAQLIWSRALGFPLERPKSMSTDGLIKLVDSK

[2] = target: the molecule itself; assay: SEC; SB-804HQ column on HPLC, buffer B with 20% ethylene glycol, 6 or 12 µM as monomer, heated 30 min at the specified temperature and run at the same temperature
[3] = target: the molecule itself; assay: SEC-MALS; TSKgel G3000XL column, buffer B (50 mM Tris/HCl pH 7.5, 0.1 mM EDTA, 150 mM NaCl), room temperature
[4] = target: the molecule itself; assay: SEC; mixture of CgHspB1WT (30 µM) and IPMDH incubated at 25 and 55 °C for 30 min and analysed at the same temperature; the 55 °C mixture also cooled and analysed at 25 °C

B1: wild‐type CgHspB1 (HspB1/Hsp27 from Chinese hamster ovary cells) (natural protein, Chinese hamster (Cricetulus griseus), UniProt A0A8C2QII0 1-213, looked up)
chain: MTERRVPFSLLRSPSWEPFRDWYPAHSRLFDQAFGVPRLPDEWSQWFSAAGWPGYVRPLPAATAEGPAAVALAAPLAAPAFHRALNRQLSSGVSEIRQTADRWRVSLDVNHFAPEELTVKTKEGVVEITGKHEERQDEHGYISRCFTRKYTLPPGVDPTLVSSSLSPEGTLTVEAPLPKTATQSAEITIPVTFEARAQIGGQEAGKSEQSGAK
notes: HspB1/Hsp27 of Chinese hamster (Cricetulus griseus), full-length gene amplified from total cDNA of CHO cells; deduced subunit mass 23.4 kDa; 16-mer at room temperature by SEC-MALS; the oligomer varies with temperature and concentration; also called CgHspB1WT; HspB1 from CHO cells; source: E. coli BL21 Star (DE3) / BL21 (DE3), pET23b, purified (DEAE, RESOURCE Q, Superdex 200); copies: 16
binding result [1]: binds
stoichiometry N [2]: ~2
stoichiometry N [3]: 16

B2: CgHspB1 with S15D mutation (natural protein, Chinese hamster (Cricetulus griseus), UniProt A0A8C2QII0 1-213, looked up)
chain: B1 chain with S15D
notes: HspB1/Hsp27 of Chinese hamster (Cricetulus griseus), full-length gene from CHO cell cDNA, with S15D; Made by site-directed mutagenesis on pET23b-CgHspB1WT; also called CgHspB1S15D; CgHspBS15D; source: E. coli BL21 (DE3), pET23b, purified (DEAE, RESOURCE Q, Superdex 200)
stoichiometry N [2]: ~2

B3: isopropyl malate dehydrogenase from Thermus thermophilus HB8 (enzyme, UniProt Q5SIY4 1-345, looked up)
chain: MKVAVLPGDGIGPEVTEAALKVLRALDEAEGLGLAYEVFPFGGAAIDAFGEPFPEPTRKGVEEAEAVLLGSVGGPKWDGLPRKIRPETGLLSLRKSQDLFANLRPAKVFPGLERLSPLKEEIARGVDVLIVRELTGGIYFGEPRGMSEAEAWNTERYSKPEVERVARVAFEAARKRRKHVVSVDKANVLEVGEFWRKTVEEVGRGYPDVALEHQYVDAMAMHLVRSPARFDVVVTGNIFGDILSDLASVLPGSLGLLPSASLGRGTPVFEPVHGSAPDIAGKGIANPTAAILSAAMMLEHAFGLVELARKVEDAVAKALLETPPPDLGGSAGTEAFTATVLRHLA
notes: isopropyl malate dehydrogenase (3-isopropylmalate dehydrogenase) from Thermus thermophilus HB8; also called IPMDH
stoichiometry N [4]: 2
